Literature values, collected in paper PMC6679882.
pKd: −log10 of the molar value.

Biological target: IL-18BP (Homo sapiens) (UniProt O95998)
Sequence (O95998 31-194): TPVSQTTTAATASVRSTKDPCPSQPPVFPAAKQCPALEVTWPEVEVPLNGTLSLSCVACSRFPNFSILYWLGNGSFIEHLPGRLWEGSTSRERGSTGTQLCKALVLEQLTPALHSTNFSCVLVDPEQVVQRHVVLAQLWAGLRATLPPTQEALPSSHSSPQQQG

Sequence of IL-18 (Q14116 37-193): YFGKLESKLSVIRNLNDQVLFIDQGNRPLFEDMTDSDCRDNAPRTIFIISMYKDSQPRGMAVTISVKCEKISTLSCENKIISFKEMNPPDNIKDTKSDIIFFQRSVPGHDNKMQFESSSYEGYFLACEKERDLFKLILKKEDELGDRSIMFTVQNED

IL-18 (from UniProt Q14116)
pKd: 9.40
